B1: Zinc finger MYM-type protein 3, residues 589 to 668; numbered along this chain, Q14202 (parent)
chain: LSCHYCHSLFSGKPEVLDWQDQVFQFCCRDCCEDFKRLRGVVSQCEHCRQEKLLHEKLRFSGVEKSFCSEGCVLLYKQDF

For 34 variants, abundance fitness results are on record in the Human Domainome abundance scans (Beltran et al. 2025).

± gives the uncertainty stated by the source.

The variants in the data set derive from B1. In words: abundance fitness (aPCA) (normalised: wild type 0, dead -1); higher = more abundant; growth selection in yeast, the domain comes from the species named. The following applies: Homo sapiens.
Regarding LSCHYCHSLFSGKWEVLDWQDQVFQFCCRDCCEDFKRLRGVVSQCEHCRQEKLLHEKLRFSGVEKSFCSEGCVLLYKQDF, the abundance fitness is -0.528 ± 0.061.

As to LSCHYCHSLFSGKHEVLDWQDQVFQFCCRDCCEDFKRLRGVVSQCEHCRQEKLLHEKLRFSGVEKSFCSEGCVLLYKQDF, the abundance fitness was -0.212 ± 0.087.

For the variant LSCHYCHSLFSGKEEVLDWQDQVFQFCCRDCCEDFKRLRGVVSQCEHCRQEKLLHEKLRFSGVEKSFCSEGCVLLYKQDF, the abundance fitness is -0.309 ± 0.061.

Turning to LSCHYCHSLFSGKPENLDWQDQVFQFCCRDCCEDFKRLRGVVSQCEHCRQEKLLHEKLRFSGVEKSFCSEGCVLLYKQDF, the abundance fitness was -0.033 ± 0.1.

For LSCHYCHSLFSGKPEVLDWQDQVFQFCCRDCCEDFKRLRGVVSQCEHCRQEKLLHGKLRFSGVEKSFCSEGCVLLYKQDF, the abundance fitness is -0.47 ± 0.11.

As for LSCHYCHSLFSGKPEVLDWQDQVFQFCCRDCCEDFKRLRGVVSQCEHCRQEKLLHEKLRFSGVEKSFCSEGVVLLYKQDF, the abundance fitness is -0.647 ± 0.15.

As for LSCHYCHSLFSGKPEVLDWQDQVFQFCCRDCCEDFKDLRGVVSQCEHCRQEKLLHEKLRFSGVEKSFCSEGCVLLYKQDF, the abundance fitness is -0.238 ± 0.19.

LSCHYCHSLFSGKPEVLYWQDQVFQFCCRDCCEDFKRLRGVVSQCEHCRQEKLLHEKLRFSGVEKSFCSEGCVLLYKQDF: the abundance fitness is -0.127 ± 0.053.

LSCHYCHSLFSGKPEVLHWQDQVFQFCCRDCCEDFKRLRGVVSQCEHCRQEKLLHEKLRFSGVEKSFCSEGCVLLYKQDF: the abundance fitness is -0.08 ± 0.15.

Turning to LSCHYCHSLFSGKPEVLDWQDQVFQFCCRDCCEDFKRLRGVVSQCEHCRQEKLLREKLRFSGVEKSFCSEGCVLLYKQDF, the abundance fitness came to 0.057 ± 0.09.

Consider LSCHYCHSLFSGKPEVLDWQDQVFQFCCRDCCEDFKRLRGVVSQCEHCRQEKLLHEKLRFSEVEKSFCSEGCVLLYKQDF, for which the abundance fitness was 0.013 ± 0.19.

On to LSCHYCHSLFSGKPEVLDWQDQVFQFCCRDCCEDFKRLRGVVSQCEHCRQEKLLHEKLRFSMVEKSFCSEGCVLLYKQDF, for which the abundance fitness is -0.3 ± 0.32.

Take LSCHYCHSLFSGKPEVLDWQDQVFQFCCRDCCEDFKRLRGVVSQCEHCRQEKLLHEKLRFSPVEKSFCSEGCVLLYKQDF: the abundance fitness was -1.01 ± 0.25.

With LSCHYCHSLFSGKPIVLDWQDQVFQFCCRDCCEDFKRLRGVVSQCEHCRQEKLLHEKLRFSGVEKSFCSEGCVLLYKQDF, the abundance fitness came to 0.093 ± 0.054.

LSCHYCHSLFSGKPLVLDWQDQVFQFCCRDCCEDFKRLRGVVSQCEHCRQEKLLHEKLRFSGVEKSFCSEGCVLLYKQDF: the abundance fitness was -0.014 ± 0.047.

LSCHYCHSLFSGHPEVLDWQDQVFQFCCRDCCEDFKRLRGVVSQCEHCRQEKLLHEKLRFSGVEKSFCSEGCVLLYKQDF: the abundance fitness was -0.043 ± 0.077.

For the variant LSCHYCHSLFSGKPEVLDWQDQVFQFCCRDCCEDFKRLRGVVSQCEHCRQEKLLHEKLRVSGVEKSFCSEGCVLLYKQDF, the abundance fitness worked out at 0.204 ± 0.093.

Turning to LSCHYCHSLFSGKPEVLDWQDQVFQFCCRDCCEDFKRLRGVVSQCEHCRQEKLLHEKLRASGVEKSFCSEGCVLLYKQDF, the abundance fitness was -0.034 ± 0.11.

For the variant LSCHYCHSLFSGKPEVLDWQDQVPQFCCRDCCEDFKRLRGVVSQCEHCRQEKLLHEKLRFSGVEKSFCSEGCVLLYKQDF, the abundance fitness was -0.383 ± 0.068.

With LSCHYCHSLFSGKPEVLDWQDQVFQFCCRDCCEDFKRLRGVVSQCEHCRQEKLLHEPLRFSGVEKSFCSEGCVLLYKQDF, the abundance fitness was -0.804 ± 0.26.

Take LSCHYCHSLFSGKPEVLDWQDQVFQFCWRDCCEDFKRLRGVVSQCEHCRQEKLLHEKLRFSGVEKSFCSEGCVLLYKQDF: the abundance fitness is -0.973 ± 0.094.

As to LSCHYCHSLFSGKPEVLDWQDQVFQFCCRDCCEDFKRLRGVVSQCEHCRQEGLLHEKLRFSGVEKSFCSEGCVLLYKQDF, the abundance fitness was -0.07 ± 0.078.

LSCHYCHSLFSGKPEVLDWQDQVFQFCCRDCCEDFKRLRGVVSQCEHCRQEKLLHEKLRFSGVEKSFCSEWCVLLYKQDF: the abundance fitness is -0.219 ± 0.22.

Take LSCHYCHSLFSGKPEVLDYQDQVFQFCCRDCCEDFKRLRGVVSQCEHCRQEKLLHEKLRFSGVEKSFCSEGCVLLYKQDF: the abundance fitness came to 0.269 ± 0.075.

For the variant LSCHYCHSLFSGKPEVLDIQDQVFQFCCRDCCEDFKRLRGVVSQCEHCRQEKLLHEKLRFSGVEKSFCSEGCVLLYKQDF, the abundance fitness came out at 0.234 ± 0.13.

For LSCHYCHSLFSGKPEVLDFQDQVFQFCCRDCCEDFKRLRGVVSQCEHCRQEKLLHEKLRFSGVEKSFCSEGCVLLYKQDF, the abundance fitness came to 0.364 ± 0.059.

Consider LSCHYCHSLFSGKPEVLDRQDQVFQFCCRDCCEDFKRLRGVVSQCEHCRQEKLLHEKLRFSGVEKSFCSEGCVLLYKQDF, for which the abundance fitness was 0.157 ± 0.038.

For LSCHYCHSLFSGKPEVLDWQDQVFQHCCRDCCEDFKRLRGVVSQCEHCRQEKLLHEKLRFSGVEKSFCSEGCVLLYKQDF, the abundance fitness was -0.666 ± 0.15.

Regarding LSCHYCHSLFSGKPEVLDWQDQVFAFCCRDCCEDFKRLRGVVSQCEHCRQEKLLHEKLRFSGVEKSFCSEGCVLLYKQDF, the abundance fitness is -0.044 ± 0.04.

For the variant LSCHYCHSLFSGKPEVLDWQDQVFQFCCRDCCEDFKRLRGVVSQCEHCRQEKLLHEKLRFSGVEKSFCSEGCVLLYKQWF, the abundance fitness was -0.378 ± 0.19.

As to LPCHYCHSLFSGKPEVLDWQDQVFQFCCRDCCEDFKRLRGVVSQCEHCRQEKLLHEKLRFSGVEKSFCSEGCVLLYKQDF, the abundance fitness was -0.39 ± 0.061.

Take LSCHYCHSLFSGKPEVLDWQDQVFQFCCRDCCEDFKRLRGVVSQCLHCRQEKLLHEKLRFSGVEKSFCSEGCVLLYKQDF: the abundance fitness is -0.116 ± 0.09.

As for LSCHYCHSLFSMKPEVLDWQDQVFQFCCRDCCEDFKRLRGVVSQCEHCRQEKLLHEKLRFSGVEKSFCSEGCVLLYKQDF, the abundance fitness is -0.143 ± 0.049.

For the variant LSCHYCHSLFSNKPEVLDWQDQVFQFCCRDCCEDFKRLRGVVSQCEHCRQEKLLHEKLRFSGVEKSFCSEGCVLLYKQDF, the abundance fitness was -0.187 ± 0.087.
